Test results as given in patent US20130251714A1 (Sanofi, published 2013).
Numbering of substitutions follows the chain as printed. Names and notes keep the numbering of the source.

T1: N-terminal EC region of human CXCR5 (amino acids 1-59), synthetic peptide with a terminal biotin tag (human, UniProt P32302 1-59, terminal biotin tag)
T1 construct: range 1-59; also called biotinylated human peptide
T1 sequence (peptide, looked up): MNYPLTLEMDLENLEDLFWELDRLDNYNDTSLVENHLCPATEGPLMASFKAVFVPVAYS

T2: un-tagged human CXCR5 N-terminal peptide (amino acids 1-59) (human, UniProt P32302 1-59)
T2 construct: range 1-59
T2 sequence (peptide, looked up): T1 sequence (peptide, looked up)

T3: cynomolgus CXCR5 (on cynomolgus B cells) (cynomolgus monkey, UniProt G8F5K4 1-372)
T3 construct: also called cyno CXCR5
T3 sequence: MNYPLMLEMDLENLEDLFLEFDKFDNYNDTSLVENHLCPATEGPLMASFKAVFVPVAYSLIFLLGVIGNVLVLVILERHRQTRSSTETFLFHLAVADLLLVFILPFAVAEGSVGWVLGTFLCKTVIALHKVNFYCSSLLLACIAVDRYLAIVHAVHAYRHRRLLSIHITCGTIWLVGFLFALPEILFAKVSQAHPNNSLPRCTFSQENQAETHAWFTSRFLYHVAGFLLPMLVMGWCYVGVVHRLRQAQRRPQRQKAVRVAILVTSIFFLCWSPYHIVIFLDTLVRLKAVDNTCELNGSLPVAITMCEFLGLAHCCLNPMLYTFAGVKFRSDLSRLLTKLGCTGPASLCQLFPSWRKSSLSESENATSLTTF

B1: Mouse anti-hCXCR5 mAb clone 16D7 (antibody, V domains shown)
VH: QVQLKESGPGLVAPSQSLSITCTVSGFSLIDYGVNWIRQPPGKGLEWLGVIWGDGTTYYNSALKSRLSIRKDNSQSQVFLKMNSLQTDDTAMYYCARIVYWGQGTLVTVSA
VL: DIVMTQAAPSVAVTPRESVSISCRSSKSLLHSSGKTYLYWFLQRPGQSPQLLIYRMSNLASGVPDRFSGSGSGTAFTLRISRVEAEDVGVYYCMQHLEYPYTFGGGTKLEIK
notes: Mouse monoclonal antibody from a hybridoma; kappa light chain; also called murine 16D7; parent 16D7 antibody
B2: 16D7-HC1-LC2 (antibody, V domains shown)
VH: B1 VH with Q16E, S61P, A62S, R70S, Q75K, M82V, N83T, Q86T
VL: DIVMTQAAPSVAVTPGASVSISCRSSKSLLHSSGKTYLYWFLQRPGQSPQLLIYRLSNLASGVPDRFSGSGSGTAFTLRISRVEAEDVGVYYCMQHLEYPYTFGGGTKLEIKR
notes: Humanized 16D7 on an IgG4 backbone / kappa; also called Version3
B3: 16D7-HC1-LC1 (antibody, V domains shown)
VH: B1 VH with Q16E, S61P, A62S, R70S, Q75K, M82V, N83T, Q86T
VL: B2 VL with L56M
notes: Humanized 16D7 on an IgG4 backbone / kappa; also called Version1
B4: mouse/human IgG4 chimeric 16D7 (antibody, V domains shown)
VH: B1 VH
VL: B2 VL with G16R, A17E, L56M
notes: 16D7 VH and VL on human IgG4 (IGHG4 lacking the C-terminal Lys) and kappa (IGKC); also called the hIgG4 chimera
B5: 16D7-HC3-LC5 (antibody, V domains shown)
VH: B1 VH with K5Q, Q16E, S61P, A62S, R70S, Q75K, Q86T, T87A, D88A, A111S
VL: B2 VL with A7S, P9L, A17E, R79K
notes: Resurfaced 16D7; VL fused to IGKC, VH fused to IGHG4 lacking the C-terminal Lys; also called Version6
B6: 16D7-HC1-LC3 (antibody)
heavy: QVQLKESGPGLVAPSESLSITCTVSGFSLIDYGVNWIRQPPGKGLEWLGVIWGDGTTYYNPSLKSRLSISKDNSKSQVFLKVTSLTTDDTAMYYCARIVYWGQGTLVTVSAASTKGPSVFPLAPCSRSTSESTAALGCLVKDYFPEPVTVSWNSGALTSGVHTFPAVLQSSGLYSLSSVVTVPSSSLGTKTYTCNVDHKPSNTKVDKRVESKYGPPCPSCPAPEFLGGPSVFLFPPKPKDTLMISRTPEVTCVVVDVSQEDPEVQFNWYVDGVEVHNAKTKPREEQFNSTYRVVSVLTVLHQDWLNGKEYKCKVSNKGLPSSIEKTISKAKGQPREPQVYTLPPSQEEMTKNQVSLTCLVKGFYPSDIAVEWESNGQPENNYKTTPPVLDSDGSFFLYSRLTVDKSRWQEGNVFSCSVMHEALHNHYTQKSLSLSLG
light: DIVMTQAAPSVAVTPGASVSISCRSSKSLLHSSGKTYLYWFLQRPGQSPQLLIYRLSSLASGVPDRFSGSGSGTAFTLRISRVEAEDVGVYYCMQHLEYPYTFGGGTKLEIKRTVAAPSVFIFPPSDEQLKSGTASVVCLLNNFYPREAKVQWKVDNALQSGNSQESVTEQDSKDSTYSLSSTLTLSKADYEKHKVYACEVTHQGLSSPVTKSFNRGEC
notes: Humanized 16D7 on an IgG4 backbone / kappa; also called Version 4
B7: 16D7-HC1-LC6 (antibody, V domains shown)
VH: B1 VH with Q16E, S61P, A62S, R70S, Q75K, M82V, N83T, Q86T
VL: B2 VL with A7S, P9L, A17E, N58S, R79K
notes: Leader (residues 1-19) left out by comparison with the printed variable domains
B8: 16D7-HC3-LC4 (antibody, V domains shown)
VH: B1 VH with K5Q, Q16E, S61P, A62S, R70S, Q75K, Q86T, T87A, D88A, A111S
VL: B2 VL with A7S, P9L, A17E, L56M, R79K
notes: Resurfaced 16D7; VL fused to IGKC, VH fused to IGHG4 lacking the C-terminal Lys; also called Version5
B9: 16D7-HC2-LC1 (antibody, V domains shown)
VH: EVQLKESGPGLVAPGGSLSITCTVSGFSLIDYGVNWIRQPPGKGLEWLGVIWGDGTTYYNAPLKGRLSISKDNSKSQVFLQMNSLKTDDTAMYYCARIVYWGQGTLVTVSS
VL: B2 VL with L56M
notes: Humanized 16D7 on an IgG4 backbone / kappa; also called Version 2
B10: Humanized SAR113244 (16D7-HC1-LC3 carrying the S241P and L248E substitutions) (antibody)
heavy: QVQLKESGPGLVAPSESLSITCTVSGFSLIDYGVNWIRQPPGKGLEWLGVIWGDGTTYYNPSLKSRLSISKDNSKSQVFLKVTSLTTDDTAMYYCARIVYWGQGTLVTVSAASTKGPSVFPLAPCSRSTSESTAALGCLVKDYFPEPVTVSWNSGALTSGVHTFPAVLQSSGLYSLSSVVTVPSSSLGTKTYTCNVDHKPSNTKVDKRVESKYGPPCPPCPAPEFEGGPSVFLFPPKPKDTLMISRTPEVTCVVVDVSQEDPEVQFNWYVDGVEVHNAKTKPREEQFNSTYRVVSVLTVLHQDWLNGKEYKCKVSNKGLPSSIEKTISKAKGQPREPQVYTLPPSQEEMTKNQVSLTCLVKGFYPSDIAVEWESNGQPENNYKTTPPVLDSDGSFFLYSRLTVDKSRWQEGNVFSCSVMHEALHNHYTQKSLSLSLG
light: B6 light
notes: Leader (residues 1-19) left out as for 16D7-HC1-LC3

target: T1, N-terminal EC region of human CXCR5 …; assay: Biacore, forward format: biotin-tagged CXCR5 N-terminal peptide (aa 1-59) on the chip, antibody as analyte
Protocol: The N-terminal EC region of CXCR5 (amino acids 1-59) from human and mouse were synthesized with a terminal biotin tag, and used in a forward format Biacore assay where the peptides were immobilized on a Biacore chip and then the kinetics of antibody interaction with the peptides on the chip were determined. The synthetic peptides were immobilized on a Biacore chip for approximately 20 response units (RUs'). Then the mAb's were exposed to the chip for kinetic measurements, following the manufacturer's recommendations (GE Healthcare, Piscataway, N.J.).

| Kd | Binder |
| --- | --- |
| 2.16 pM | B1 |
| 1.41 pM | B2 |
| 3.11 pM | B3 |
| 1.41 pM | B4 |
| 184 pM | B5 |
| 1.21 pM | B6 |
| 91.7 pM | B7 |
| 4.92 pM | B8 |
| 2.4 pM | B9 |

target: T2, un-tagged human CXCR5 N-terminal …; assay: Biacore, reverse format: mAb captured by pre-immobilized mouse anti-human IgG Fc antibody, un-tagged peptide as analyte
Protocol: Humanized SAR113244, a form of the 16D7 humanized variant, 16D7-HC1-LC3 that carries the S241P and L248E substitutions (substitutions introduced practicing known methods and reagents, using Kabat numbering), was captured on a Biacore chip by pre-immobilized mouse anti-human IgG Fc antibody, and then used in a reverse assay format Biacore assay where the kinetics of the un-tagged human CXCR5 N-terminal peptide (amino acids 1-59) interaction with the mAb's on the chip were determined.

| Kd | Binder |
| --- | --- |
| 11.3 pM | B10 |

target: T3, cynomolgus CXCR5 (on cynomolgus B cells); assay: FACS on cynomolgus PBMCs (CD20+ B cells)
Protocol: Cynomolgus (cyno) monkey whole blood was obtained from Bioreclamation, Inc. (Hicksville, N.Y.). The blood was shipped in BD Cell Preparation Tubes (CPT) post-centrifugation. The cyno PBMCs contained in the plasma layer were removed from the CPT tube into a 50 ml tube leaving the gradient gel layer undisturbed. The tube was washed with 5 ml PBS to completely extract all the cells and the wash was added to a fresh 50 ml tube. The cyno PBMCs were centrifuged at 1200 RPM for 10 minutes at 4° C. The pellet was resuspended in 1 ml BD FACS Stain buffer (BD). One million cells were used per assay. One μg of mouse anti-human CXCR5 monoclonal antibody (purified) was added to 50 μl PBMC and allowed to bind for 20 minutes at 4° C. Cells were washed 2 times with BD Stain buffer. Fifty μl of second antibody, goat anti-mouse IgG-PE F_{(ab′)} (Beckman Coulter) diluted 1/100, was added to the cells and allowed to bind for 20 minutes at 4° C. Cells were washed three times with BD Stain buffer. A cocktail containing mouse anti-human CD20-FITC (BD) and CD4-APC (BD) at 1/20 dilution each was added to cells for a 20 minute incubation at 4° C. for assessment of B/T cell specificity. Cells were washed 3 times with BD Stain buffer, and resuspended in 250 μl BD Stain buffer and subjected to FACS analysis on a FACStarPlus. Commercial mouse anti-human CXCR5 mAb (R&D; MAB 190) was used as a positive control.

| binding result | Binder |
| --- | --- |
| no binding | B2 |
| no binding | B3 |
| no binding | B6 |
| no binding | B9 |

| Binder | binding result |
| --- | --- |
| B1 | no binding (tested: One µg of antibody added to 50 µl PBMC) |
